Measurements as given in patent publication US20110046068A1 (MEDICAL RESEARCH COUNCIL, published 2011).
Blank lines part the entries; values can stand above or below the binder they belong to. Non-standard residues stand in square brackets, D forms with d.

Key:
human gpr-54 receptor [1] = target: T1, human gpr-54 receptor (human, UniProt Q969F8 1-398); assay: cell-based or functional assay
human gpr-54 receptor [2] = target: T1, human gpr-54 receptor; assay: whole-cell competition binding against 125I-kisspeptin, CHO cells stably transfected with GPR54 (CPM); the fall of the curve lies between Total and -10 LogM [201]
Description: (§1) Cell monolayers were placed on ice and exposed to 0.5 mls peptide (10 pM-1 uM); the cells were then incubated at 4° C. for 4 hr. After 4 hrs, cells were washed twice with ice cold Dulbecco's phosphate buffered saline (DPBS; with Calcium and Magnesium) and then 0.5 mls 0.1M Sodium Hydroxide (NaOH) were added to cells for 20 minutes, shaking to lyse cells. Lysates were transferred to plastic tubes and bound radioactivity counted on the gamma counter for 60 seconds.

human gpr-54 receptor [3] = target: T1, human gpr-54 receptor; assay: cell-based or functional assay; remark: listed apart in the source
human gpr-54 receptor [4] = target: T1, human gpr-54 receptor; assay: cell-based or functional assay; remark: listed apart in the source
human gpr-54 receptor [5] = target: T1, human gpr-54 receptor; assay: whole-cell competition binding against 125I-kisspeptin, CHO cells stably transfected with GPR54 (CPM); the fall of the curve lies between Total and -11 LogM [202]
Description: as §1

human gpr-54 receptor [6] = target: T1, human gpr-54 receptor; assay: whole-cell competition binding against 125I-kisspeptin, CHO cells stably transfected with GPR54 (CPM); the fall of the curve lies between Total and -11 LogM [203]
Description: as §1

human gpr-54 receptor [7] = target: T1, human gpr-54 receptor; assay: whole-cell competition binding against 125I-kisspeptin, CHO cells stably transfected with GPR54 (CPM); the fall of the curve lies between Total and -11 LogM [206]
Description: as §1

human gpr-54 receptor [8] = target: T1, human gpr-54 receptor; assay: cell-based or functional assay; remark: listed apart in the source
human gpr-54 receptor [9] = target: T1, human gpr-54 receptor; assay: whole-cell competition binding against 125I-kisspeptin, CHO cells stably transfected with GPR54 (CPM); the drawn curve falls between Total and -10 LogM, which does not fit the printed number [207]
human gpr-54 receptor [10] = target: T1, human gpr-54 receptor; assay: cell-based or functional assay; remark: listed apart in the source
human gpr-54 receptor [11] = target: T1, human gpr-54 receptor; assay: cell-based or functional assay; remark: listed apart in the source
human gpr-54 receptor [12] = target: T1, human gpr-54 receptor; assay: cell-based or functional assay; remark: listed apart in the source

T1 sequence (Q969F8 whole entry): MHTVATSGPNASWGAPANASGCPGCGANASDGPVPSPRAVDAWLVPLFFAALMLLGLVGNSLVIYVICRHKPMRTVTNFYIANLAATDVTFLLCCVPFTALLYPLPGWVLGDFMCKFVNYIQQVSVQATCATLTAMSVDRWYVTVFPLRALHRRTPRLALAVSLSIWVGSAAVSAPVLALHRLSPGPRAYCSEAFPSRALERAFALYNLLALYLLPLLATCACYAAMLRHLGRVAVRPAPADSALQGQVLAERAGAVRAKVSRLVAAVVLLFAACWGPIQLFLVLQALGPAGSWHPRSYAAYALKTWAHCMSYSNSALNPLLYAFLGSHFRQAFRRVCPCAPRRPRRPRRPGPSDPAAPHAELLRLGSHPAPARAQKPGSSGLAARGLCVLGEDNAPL

B1: 201 (peptide)
peptide: Ac-FGARW-NH2
notes: kisspeptin-10 analogue; also called acFGARW
- Inhibition of IP stimulation by 10nM Agonist: % Inhibition of Max (human gpr-54 receptor [1]): 69%
- Inhibition of IP stimulation by 10nM Agonist: IC50 (human gpr-54 receptor [1]): 7 nM
- IC50 (human gpr-54 receptor [2]): 0.00432 nM
- IP competition with 10nM kisspeptin-10: IC50 [201] (human gpr-54 receptor [3]): 7 nM

B2: 202 (peptide)
peptide: Ac-AGLRW-NH2
notes: kisspeptin-10 analogue; also called acAGLRW
- IP stimulation (IC50), peptide alone (human gpr-54 receptor [1]): > 100000 nM
- Inhibition of IP stimulation by 10nM Agonist: % Inhibition of Max (human gpr-54 receptor [1]): 64%
- Inhibition of IP stimulation by 10nM Agonist: IC50 (human gpr-54 receptor [1]): 10 nM
- IP competition with 10nM kisspeptin-10: IC50 [202] (human gpr-54 receptor [4]): 10 nM
- IP dose response, peptide alone: EC50 (unlabelled number beside rising curve; rise only at -5 LogM) [202] (human gpr-54 receptor [4]): 0.00109 M
- IC50 (human gpr-54 receptor [5]): 0.00032 nM

B3: 203 (peptide)
peptide: Ac-[dF]WLRW-NH2
SMILES: CC(=O)N[C@H](Cc1ccccc1)C(=O)N[C@@H](Cc1c[nH]c2ccccc12)C(=O)N[C@@H](CC(C)C)C(=O)N[C@@H](CCCNC(=N)N)C(=O)N[C@@H](Cc1c[nH]c2ccccc12)C(N)=O
notes: kisspeptin-10 analogue; also called ac[F-(D)]WLRW
- IP stimulation (IC50), peptide alone (human gpr-54 receptor [1]): 150000 nM
- Inhibition of IP stimulation by 10nM Agonist: % Inhibition of Max (human gpr-54 receptor [1]): 71%
- Inhibition of IP stimulation by 10nM Agonist: IC50 (human gpr-54 receptor [1]): 0.1 nM
- IC50 (human gpr-54 receptor [6]): 0.000307 nM
- IP competition with 10nM kisspeptin-10: IC50 [203] (human gpr-54 receptor [4]): 0.1 nM
- IP dose response, peptide alone: EC50 (unlabelled number beside rising curve; rise only at -5 LogM) [203] (human gpr-54 receptor [4]): 0.000156 M

B4: 206 (peptide)
peptide: Ac-FG[dW]RF-NH2
SMILES: CC(=O)N[C@@H](Cc1ccccc1)C(=O)NCC(=O)N[C@H](Cc1c[nH]c2ccccc12)C(=O)N[C@@H](CCCNC(=N)N)C(=O)N[C@@H](Cc1ccccc1)C(N)=O
notes: kisspeptin-10 analogue; also called acFG[(D)-W]RF
- IC50 (human gpr-54 receptor [7]): 0.0352 pM
- Inhibition of IP stimulation by 10nM Agonist: % Inhibition of Max (human gpr-54 receptor [1]): 68%
- Inhibition of IP stimulation by 10nM Agonist: IC50 (human gpr-54 receptor [1]): 10 nM
- IP competition with 10nM kisspeptin-10: IC50 [206] (human gpr-54 receptor [8]): 10 nM

B5: 207 (peptide)
peptide: Ac-FG[dF]RF-NH2
SMILES: CC(=O)N[C@@H](Cc1ccccc1)C(=O)NCC(=O)N[C@H](Cc1ccccc1)C(=O)N[C@@H](CCCNC(=N)N)C(=O)N[C@@H](Cc1ccccc1)C(N)=O
notes: kisspeptin-10 analogue; also called acFG[(D)-F]RF
- Inhibition of IP stimulation by 10nM Agonist: % Inhibition of Max (human gpr-54 receptor [1]): 0%
- IC50 (human gpr-54 receptor [9]): 110 nM

Binder: Ac-FG[dL]RW-NH2 [191]
- IP stimulation (IC50), peptide alone (human gpr-54 receptor [1]): 20000 nM
- Inhibition of IP stimulation by 10nM Agonist: % Inhibition of Max (human gpr-54 receptor [1]): 79%
- IP dose response, peptide alone: EC50 (unlabelled number beside rising curve) [191] (human gpr-54 receptor [10]): 26100 nM

Second part, the binder after the results:

- IP stimulation (IC50), peptide alone (human gpr-54 receptor [1]): 6400 nM
- Inhibition of IP stimulation by 10nM Agonist: % Inhibition of Max (human gpr-54 receptor [1]): 0%
- IP dose response, peptide alone: EC50 (unlabelled number beside rising curve) [237] (human gpr-54 receptor [11]): 6380 nM
B6: 237 (peptide)
peptide: Ac-[dY]NWNGFGWRF-NH2
SMILES: CC(=O)N[C@H](Cc1ccc(O)cc1)C(=O)N[C@@H](CC(N)=O)C(=O)N[C@@H](Cc1c[nH]c2ccccc12)C(=O)N[C@@H](CC(N)=O)C(=O)NCC(=O)N[C@@H](Cc1ccccc1)C(=O)NCC(=O)N[C@@H](Cc1c[nH]c2ccccc12)C(=O)N[C@@H](CCCNC(=N)N)C(=O)N[C@@H](Cc1ccccc1)C(N)=O

- IP stimulation (IC50), peptide alone (human gpr-54 receptor [1]): 2800 nM
- Inhibition of IP stimulation by 10nM Agonist: % Inhibition of Max (human gpr-54 receptor [1]): 0%
- IP dose response, peptide alone: EC50 (unlabelled number beside rising curve) [238] (human gpr-54 receptor [11]): 2820 nM
B7: 238 (peptide)
peptide: Ac-[dY]NWNSFG[dW]RF-NH2
SMILES: CC(=O)N[C@H](Cc1ccc(O)cc1)C(=O)N[C@@H](CC(N)=O)C(=O)N[C@@H](Cc1c[nH]c2ccccc12)C(=O)N[C@@H](CC(N)=O)C(=O)N[C@@H](CO)C(=O)N[C@@H](Cc1ccccc1)C(=O)NCC(=O)N[C@H](Cc1c[nH]c2ccccc12)C(=O)N[C@@H](CCCNC(=N)N)C(=O)N[C@@H](Cc1ccccc1)C(N)=O

- IP stimulation (IC50), peptide alone (human gpr-54 receptor [1]): 5 nM
- Inhibition of IP stimulation by 10nM Agonist: % Inhibition of Max (human gpr-54 receptor [1]): 0%
- IP dose response, peptide alone: EC50 (unlabelled number beside rising curve) [239] (human gpr-54 receptor [12]): 4.99 nM
B8: 239 (peptide)
peptide: Ac-[dY][dN]WNSFGWRF-NH2
SMILES: CC(=O)N[C@H](Cc1ccc(O)cc1)C(=O)N[C@H](CC(N)=O)C(=O)N[C@@H](Cc1c[nH]c2ccccc12)C(=O)N[C@@H](CC(N)=O)C(=O)N[C@@H](CO)C(=O)N[C@@H](Cc1ccccc1)C(=O)NCC(=O)N[C@@H](Cc1c[nH]c2ccccc12)C(=O)N[C@@H](CCCNC(=N)N)C(=O)N[C@@H](Cc1ccccc1)C(N)=O

- Inhibition of IP stimulation by 10nM Agonist: % Inhibition of Max (human gpr-54 receptor [1]): 57%
- Inhibition of IP stimulation by 10nM Agonist: IC50 (human gpr-54 receptor [1]): 5 nM
Binder: Ac-RRMKWKKY[dA]NWNGFG[dW]RF-NH2 [Peptide 271]

- IP stimulation (IC50), peptide alone (human gpr-54 receptor [1]): 530000 nM
- Inhibition of IP stimulation by 10nM Agonist: % Inhibition of Max (human gpr-54 receptor [1]): 73%
- Inhibition of IP stimulation by 10nM Agonist: IC50 (human gpr-54 receptor [1]): 0.1 nM
B9: 274 (peptide)
peptide: Ac-[dA]NWNPFG[dW]RF-NH2
SMILES: CC(=O)N[C@H](C)C(=O)N[C@@H](CC(N)=O)C(=O)N[C@@H](Cc1c[nH]c2ccccc12)C(=O)N[C@@H](CC(N)=O)C(=O)N1CCC[C@H]1C(=O)N[C@@H](Cc1ccccc1)C(=O)NCC(=O)N[C@H](Cc1c[nH]c2ccccc12)C(=O)N[C@@H](CCCNC(=N)N)C(=O)N[C@@H](Cc1ccccc1)C(N)=O

- IP stimulation (IC50), peptide alone (human gpr-54 receptor [1]): 21 nM
- Inhibition of IP stimulation by 10nM Agonist: % Inhibition of Max (human gpr-54 receptor [1]): 44%
- Inhibition of IP stimulation by 10nM Agonist: IC50 (human gpr-54 receptor [1]): > 100 nM
B10: 275 (peptide)
peptide: Ac-[dA]NWN[dP]FG[dW]RF-NH2
SMILES: CC(=O)N[C@H](C)C(=O)N[C@@H](CC(N)=O)C(=O)N[C@@H](Cc1c[nH]c2ccccc12)C(=O)N[C@@H](CC(N)=O)C(=O)N1CCC[C@@H]1C(=O)N[C@@H](Cc1ccccc1)C(=O)NCC(=O)N[C@H](Cc1c[nH]c2ccccc12)C(=O)N[C@@H](CCCNC(=N)N)C(=O)N[C@@H](Cc1ccccc1)C(N)=O

- Inhibition of IP stimulation by 10nM Agonist: % Inhibition of Max (human gpr-54 receptor [1]): 65%
- Inhibition of IP stimulation by 10nM Agonist: IC50 (human gpr-54 receptor [1]): 0.001 nM
B11: 276 (peptide)
peptide: Ac-[dA]NWNGFG[dL]RF-NH2
SMILES: CC(=O)N[C@H](C)C(=O)N[C@@H](CC(N)=O)C(=O)N[C@@H](Cc1c[nH]c2ccccc12)C(=O)N[C@@H](CC(N)=O)C(=O)NCC(=O)N[C@@H](Cc1ccccc1)C(=O)NCC(=O)N[C@H](CC(C)C)C(=O)N[C@@H](CCCNC(=N)N)C(=O)N[C@@H](Cc1ccccc1)C(N)=O

- IP stimulation (IC50), peptide alone (human gpr-54 receptor [1]): 1500 nM
- Inhibition of IP stimulation by 10nM Agonist: % Inhibition of Max (human gpr-54 receptor [1]): 57%
- Inhibition of IP stimulation by 10nM Agonist: IC50 (human gpr-54 receptor [1]): 0.05 nM
B12: 277 (peptide)
peptide: Ac-[dA]NWN[dA]FGLRF-NH2
SMILES: CC(=O)N[C@H](C)C(=O)N[C@@H](CC(N)=O)C(=O)N[C@@H](Cc1c[nH]c2ccccc12)C(=O)N[C@@H](CC(N)=O)C(=O)N[C@H](C)C(=O)N[C@@H](Cc1ccccc1)C(=O)NCC(=O)N[C@@H](CC(C)C)C(=O)N[C@@H](CCCNC(=N)N)C(=O)N[C@@H](Cc1ccccc1)C(N)=O

- Inhibition of IP stimulation by 10nM Agonist: % Inhibition of Max (human gpr-54 receptor [1]): 47%
- Inhibition of IP stimulation by 10nM Agonist: IC50 (human gpr-54 receptor [1]): > 100 nM
Binder: Ac-[dA]NWNGFGL[dR]F-NH2 [278]
